According to patent US20240190992A1 (UNIVERSITY PUBLIC CORPORATION OSAKA, published 2024):

Assays:
[1] = target: T1, EpCAM (epithelial cell adhesion molecule) (human, UniProt P16422 24-314); assay: antibody affinity column on KMC07 whole cell extract, silver staining, mass analysis of the eluted band
T1 construct: whole, on cells; also called human EpCAM
T1 sequence (looked up): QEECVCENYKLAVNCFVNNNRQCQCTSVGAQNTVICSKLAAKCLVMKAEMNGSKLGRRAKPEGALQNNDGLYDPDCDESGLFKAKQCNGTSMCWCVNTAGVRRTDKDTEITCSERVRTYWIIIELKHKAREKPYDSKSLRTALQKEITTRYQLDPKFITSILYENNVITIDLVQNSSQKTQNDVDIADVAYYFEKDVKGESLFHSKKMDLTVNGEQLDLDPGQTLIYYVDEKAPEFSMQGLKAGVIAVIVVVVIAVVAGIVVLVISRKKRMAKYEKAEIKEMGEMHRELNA
Description: To an affinity column, 5 clones of the anti-KMC07 antibody were bound and the KMC07 whole cell extract was flown to react the antibody with the antigen. Thereafter, the antibody was eluted and evaluated by silver staining. […] Among them, the broad band of 75 to 100 kDa (mark 4 in the figure) detected with 1B4G4 was similar to that in FIG. 10, and thus considered to be promising as a candidate antigen.

[2] = target: T2, mouse EpCAM (mouse, UniProt Q99JW5 24-315); assay: living cell immunostaining of KMC07 co-cultured with mouse PA6 cells
T2 construct: whole, on cells; also called EpCAM on the mouse fibroblast cell line PA6
T2 sequence (looked up): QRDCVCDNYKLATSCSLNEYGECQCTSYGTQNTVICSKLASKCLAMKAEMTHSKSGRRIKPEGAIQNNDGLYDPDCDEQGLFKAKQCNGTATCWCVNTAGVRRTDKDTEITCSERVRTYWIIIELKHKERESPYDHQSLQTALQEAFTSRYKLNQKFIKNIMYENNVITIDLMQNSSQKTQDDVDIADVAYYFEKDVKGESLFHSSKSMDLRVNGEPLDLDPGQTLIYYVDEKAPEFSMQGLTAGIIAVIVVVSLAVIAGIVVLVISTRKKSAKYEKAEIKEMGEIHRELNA
Description: Since it was considered that EpCAM was so specially modified with KMC07 that its expression pattern was changed, expression of EpCAM was confirmed using alive or fixed Triton X-100-treated KMC07 by immunostaining. At this time, the anti-KMC07 antibody 1F9D4 and a commercially available EpCAM antibody were used as primary antibodies. When KMC07 was immunostained as living cells, signals were obtained on the cell membrane of KMC07 and the cell membrane of PA6 with the anti-EpCAM antibody (indicated by the arrow in FIG. 12). The staining pattern of KMC07 was similar to that with 1F9D4. Since the anti-EpCAM antibody is known to cross human, mouse and rat EpCAMs, it is considered that the anti-EpCAM antibody also reacted to the mouse fibroblast cell line PA6.

binding result [1]: binds
binding result [2]: no binding
B1: 1F9D4 (antibody III) (antibody, IgG2b, V domains shown)
VH: EVQLVESGGGLVQPGRSLKLSCAASGFTFSDYNMAWVRQAPKKGLEWVATINYDGISTYYRDSVKGRFTISRDNAKSTLYLQMDSLRSEDTATYYCARHSYVYYALGVPFAYWGQGTLVTVSS
VL: DIQMTQSPSLLSASVGDRVTINCKASQNINKYLNWYQQKLGEAPKLLIYNTNSLQTGIPSRFSGSGSGTDYTLTISSLQPEDFGTYFCFQHNSWPLTFGSGTKLEIK
notes: also called IF9D4; anti-KMC07 antibody 1F9D4
